Results as given in patent US12060424 (AMUNIX PHARMACEUTICALS, dated 2024).

Experiments:
[1] = target: T1, human EpCAM expressed on cells (CHO cells stably transfected with human EpCAM); EpCAM-positive human tumor … (human, UniProt P16422 24-314); assay: cell-based or functional assay
T1 sequence (looked up): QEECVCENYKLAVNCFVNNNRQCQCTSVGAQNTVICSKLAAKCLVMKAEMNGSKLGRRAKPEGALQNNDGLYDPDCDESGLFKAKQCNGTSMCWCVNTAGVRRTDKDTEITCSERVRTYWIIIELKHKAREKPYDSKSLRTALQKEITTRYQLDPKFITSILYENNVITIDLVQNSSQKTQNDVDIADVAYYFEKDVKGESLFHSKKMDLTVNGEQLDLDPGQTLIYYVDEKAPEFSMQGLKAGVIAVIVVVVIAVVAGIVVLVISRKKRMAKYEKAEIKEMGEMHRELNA

[2] = target: recombinant human CD3 epsilon & delta (rhCD3ε & δ), Creative BioMart cat #CD3E&CD3D-219H (human) (UniProt P07766); assay: sandwich ELISA: rhCD3ε & δ coated, biotinylated anti-XTEN antibody detection
recombinant human CD3 epsilon & delta (rhCD3ε & δ), Creative BioMart cat #CD3E&CD3D-219H (human), sequence (P07766 23-126, stated change not applied, chain 1 of 2): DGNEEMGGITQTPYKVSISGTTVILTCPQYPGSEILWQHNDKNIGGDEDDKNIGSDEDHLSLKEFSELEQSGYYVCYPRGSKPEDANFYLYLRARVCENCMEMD
recombinant human CD3 epsilon & delta (rhCD3ε & δ), Creative BioMart cat #CD3E&CD3D-219H (human), sequence (P04234 22-105, stated change not applied, chain 2 of 2, further chain): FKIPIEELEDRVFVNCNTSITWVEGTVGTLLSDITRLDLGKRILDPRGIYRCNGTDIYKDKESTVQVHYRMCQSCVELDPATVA

B1: AC1693 protease-untreated anti-EpCAM×anti-CD3 ProTIA (bispecific antibody)
chain: DIQMTQSPSSLSASVGDRVTITCRSTKSLLHSNGITYLYWYQQKPGKAPKLLIYQMSNLASGVPSRFSSSGSGTDFTLTISSLQPEDFATYYCAQNLEIPRTFGQGTKVEIKGATPPETGAETESPGETTGGSAESEPPGEGQVQLVQSGPGLVQPGGSVRISCAASGYTFTNYGMNWVKQAPGKGLEWMGWINTYTGESTYADSFKGRFTFSLDTSASAAYLQINSLRAEDTAVYYCARFAIKGDYWGQGTLLTVSSGGGGSDIQMTQSPSSLSASVGDRVTITCRASQDIRNYLNWYQQKPGKAPKLLIYYTSRLESGVPSRFSGSGSGTDYTLTISSLQPEDFATYYCQQGNTLPWTFGQGTKVEIKGATPPETGAETESPGETTGGSAESEPPGEGEVQLVESGGGLVQPGGSLRLSCAASGYSFTGYTMNWVRQAPGKGLEWVALINPYKGVSTYNQKFKDRFTISVDKSKNTAYLQMNSLRAEDTAVYYCARSGYYGDSDWYFDVWGQGTLVTVSSGTAEAASASGESGRAANHTGAPPGGLTGPPGSPAGSPTSTEEGTSESATPESGPGTSTEPSEGSAPGSPAGSPTSTEEGTSTEPSEGSAPGTSTEPSEGSAPGTSESATPESGPGSEPATSGSETPGSEPATSGSETPGSPAGSPTSTEEGTSESATPESGPGTSTEPSEGSAPGTSTEPSEGSAPGSPAGSPTSTEEGTSTEPSEGSAPGTSTEPSEGSAPGTSESATPESGPGTSTEPSEGSAPGTSESATPESGPGSEPATSGSETPGTSTEPSEGSAPGTSTEPSEGSAPGTSESATPESGPGTSESATPESGPGSPAGSPTSTEEGTSESATPESGPGSEPATSGSETPGTSESATPESGPGTSTEPSEGSAPGTSTEPSEGSAPGTSTEPSEGSAPGTSTEPSEGSAPGTSTEPSEGSAPGTSTEPSEGSAPGSPAGSPTSTEEGTSTEPSEGSAPGTSESATPESGPGSEPATSGSETPGTSESATPESGPGSEPATSGSETPGTSESATPESGPGTSTEPSEGSAPGTSESATPESGPGSPAGSPTSTEEGSPAGSPTSTEEGSPAGSPTSTEEGTSESATPESGPGTSTEPSEGSAPGTSESATPESGPGSEPATSGSETPGTSESATPESGPGSEPATSGSETPGTSESATPESGPGTSTEPSEGSAPGSPAGSPTSTEEGTSESATPESGPGSEPATSGSETPGTSESATPESGPGSPAGSPTSTEEGSPAGSPTSTEEGTSTEPSEGSAPGTSESATPESGPGTSESATPESGPGTSESATPESGPGSEPATSGSETPGSEPATSGSETPGSPAGSPTSTEEGTSTEPSEGSAPGTSTEPSEGSAPGSEPATSGSETPGTSESATPESGPGTSTEPSEGSAPGHHHHHH
[1]
  EC50 (pM), caspase 3/7 cytotoxicity, PBMC with HCT-116 cells 10:1: 21 pM
  EC50 (pM), caspase 3/7 cytotoxicity, PBMC with HPAF-II cells 10:1: 12 pM
  EC50 (pM), caspase 3/7 cytotoxicity, PBMC with MDA-MB-231 cells 10:1: 3480 pM
[2]
  EC50: 0.009 µg/mL
  fold more active binding than the non-cleavable AC1484: 3 fold

B2: AC1714 protease-untreated anti-EpCAM×anti-CD3 ProTIA (bispecific antibody)
chain: DIQMTQSPSSLSASVGDRVTITCRSTKSLLHSNGITYLYWYQQKPGKAPKLLIYQMSNLASGVPSRFSSSGSGTDFTLTISSLQPEDFATYYCAQNLEIPRTFGQGTKVEIKGATPPETGAETESPGETTGGSAESEPPGEGQVQLVQSGPGLVQPGGSVRISCAASGYTFTNYGMNWVKQAPGKGLEWMGWINTYTGESTYADSFKGRFTFSLDTSASAAYLQINSLRAEDTAVYYCARFAIKGDYWGQGTLLTVSSGGGGSDIQMTQSPSSLSASVGDRVTITCRASQDIRNYLNWYQQKPGKAPKLLIYYTSRLESGVPSRFSGSGSGTDYTLTISSLQPEDFATYYCQQGNTLPWTFGQGTKVEIKGATPPETGAETESPGETTGGSAESEPPGEGEVQLVESGGGLVQPGGSLRLSCAASGYSFTGYTMNWVRQAPGKGLEWVALINPYKGVSTYNQKFKDRFTISVDKSKNTAYLQMNSLRAEDTAVYYCARSGYYGDSDWYFDVWGQGTLVTVSSGTAEAASASGEAGRSANHTPAGLTGPPGSPAGSPTSTEEGTSESATPESGPGTSTEPSEGSAPGSPAGSPTSTEEGTSTEPSEGSAPGTSTEPSEGSAPGTSESATPESGPGSEPATSGSETPGSEPATSGSETPGSPAGSPTSTEEGTSESATPESGPGTSTEPSEGSAPGTSTEPSEGSAPGSPAGSPTSTEEGTSTEPSEGSAPGTSTEPSEGSAPGTSESATPESGPGTSTEPSEGSAPGTSESATPESGPGSEPATSGSETPGTSTEPSEGSAPGTSTEPSEGSAPGTSESATPESGPGTSESATPESGPGSPAGSPTSTEEGTSESATPESGPGSEPATSGSETPGTSESATPESGPGTSTEPSEGSAPGTSTEPSEGSAPGTSTEPSEGSAPGTSTEPSEGSAPGTSTEPSEGSAPGTSTEPSEGSAPGSPAGSPTSTEEGTSTEPSEGSAPGTSESATPESGPGSEPATSGSETPGTSESATPESGPGSEPATSGSETPGTSESATPESGPGTSTEPSEGSAPGTSESATPESGPGSPAGSPTSTEEGSPAGSPTSTEEGSPAGSPTSTEEGTSESATPESGPGTSTEPSEGSAPGTSESATPESGPGSEPATSGSETPGTSESATPESGPGSEPATSGSETPGTSESATPESGPGTSTEPSEGSAPGSPAGSPTSTEEGTSESATPESGPGSEPATSGSETPGTSESATPESGPGSPAGSPTSTEEGSPAGSPTSTEEGTSTEPSEGSAPGTSESATPESGPGTSESATPESGPGTSESATPESGPGSEPATSGSETPGSEPATSGSETPGSPAGSPTSTEEGTSTEPSEGSAPGTSTEPSEGSAPGSEPATSGSETPGTSESATPESGPGTSTEPSEGSAPGHHHHHH
[1]
  EC50 (pM), caspase 3/7 cytotoxicity, PBMC with HCT-116 cells 10:1: 52 pM
  EC50 (pM), caspase 3/7 cytotoxicity, PBMC with HPAF-II cells 10:1: 20 pM
  EC50 (pM), caspase 3/7 cytotoxicity, PBMC with MDA-MB-231 cells 10:1: 1740 pM
[2]
  EC50: 0.03 µg/mL

B3: AC1715 protease-untreated anti-EpCAM×anti-CD3 ProTIA (bispecific antibody)
chain: DIQMTQSPSSLSASVGDRVTITCRSTKSLLHSNGITYLYWYQQKPGKAPKLLIYQMSNLASGVPSRFSSSGSGTDFTLTISSLQPEDFATYYCAQNLEIPRTFGQGTKVEIKGATPPETGAETESPGETTGGSAESEPPGEGQVQLVQSGPGLVQPGGSVRISCAASGYTFTNYGMNWVKQAPGKGLEWMGWINTYTGESTYADSFKGRFTFSLDTSASAAYLQINSLRAEDTAVYYCARFAIKGDYWGQGTLLTVSSGGGGSDIQMTQSPSSLSASVGDRVTITCRASQDIRNYLNWYQQKPGKAPKLLIYYTSRLESGVPSRFSGSGSGTDYTLTISSLQPEDFATYYCQQGNTLPWTFGQGTKVEIKGATPPETGAETESPGETTGGSAESEPPGEGEVQLVESGGGLVQPGGSLRLSCAASGYSFTGYTMNWVRQAPGKGLEWVALINPYKGVSTYNQKFKDRFTISVDKSKNTAYLQMNSLRAEDTAVYYCARSGYYGDSDWYFDVWGQGTLVTVSSGTAEAASASGESGRAANTTPAGLTGPPGSPAGSPTSTEEGTSESATPESGPGTSTEPSEGSAPGSPAGSPTSTEEGTSTEPSEGSAPGTSTEPSEGSAPGTSESATPESGPGSEPATSGSETPGSEPATSGSETPGSPAGSPTSTEEGTSESATPESGPGTSTEPSEGSAPGTSTEPSEGSAPGSPAGSPTSTEEGTSTEPSEGSAPGTSTEPSEGSAPGTSESATPESGPGTSTEPSEGSAPGTSESATPESGPGSEPATSGSETPGTSTEPSEGSAPGTSTEPSEGSAPGTSESATPESGPGTSESATPESGPGSPAGSPTSTEEGTSESATPESGPGSEPATSGSETPGTSESATPESGPGTSTEPSEGSAPGTSTEPSEGSAPGTSTEPSEGSAPGTSTEPSEGSAPGTSTEPSEGSAPGTSTEPSEGSAPGSPAGSPTSTEEGTSTEPSEGSAPGTSESATPESGPGSEPATSGSETPGTSESATPESGPGSEPATSGSETPGTSESATPESGPGTSTEPSEGSAPGTSESATPESGPGSPAGSPTSTEEGSPAGSPTSTEEGSPAGSPTSTEEGTSESATPESGPGTSTEPSEGSAPGTSESATPESGPGSEPATSGSETPGTSESATPESGPGSEPATSGSETPGTSESATPESGPGTSTEPSEGSAPGSPAGSPTSTEEGTSESATPESGPGSEPATSGSETPGTSESATPESGPGSPAGSPTSTEEGSPAGSPTSTEEGTSTEPSEGSAPGTSESATPESGPGTSESATPESGPGTSESATPESGPGSEPATSGSETPGSEPATSGSETPGSPAGSPTSTEEGTSTEPSEGSAPGTSTEPSEGSAPGSEPATSGSETPGTSESATPESGPGTSTEPSEGSAPGHHHHHH
[1]
  EC50 (pM), caspase 3/7 cytotoxicity, PBMC with HCT-116 cells 10:1: 20 pM
  EC50 (pM), caspase 3/7 cytotoxicity, PBMC with HPAF-II cells 10:1: 14 pM
  EC50 (pM), caspase 3/7 cytotoxicity, PBMC with MDA-MB-231 cells 10:1: 1190 pM
[2]
  EC50: 0.034 µg/mL
